Measured values as given in patent publication US20240200091A1, “USE OF PROTOPORPHYRINOGEN OXIDASE” (BEIJING DABEINONG BIOTECHNOLOGY CO., LTD., priority 2021, published 2024).

Legend:
Format in all cases: in vivo
[1] = system: Arabidopsis thaliana T1 plants; assay: flumioxazin tolerance of transgenic Arabidopsis thaliana T1 plants (spray, grade of pesticide damage); details: 7 DAT, number of plants of 24 per genotype, grades
Method in brief: (§1)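 Glufosinate-selected T1 lines expressing PPO variants, with control-vector and wild-type plants (24 per genotype), were sprayed 18 days after sowing with saflufenacil 25 or 100, sulfentrazone 450 or 900, flumioxazin 60 or 240, or oxyfluorfen 180 or 720 g ai/ha, or water. Injured/total leaf area was graded 0–3 at 7 DAT.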

[2] = system: Arabidopsis thaliana T1 plants; assay: sulfentrazone tolerance of transgenic Arabidopsis thaliana T1 plants (spray, grade of pesticide damage); details: 7 DAT, number of plants of 24 per genotype, grades
Method in brief: as §1

[3] = system: transgenic soybean plants; assay: flumioxazin tolerance of transgenic soybean plants (spray, grade of pesticide damage); details: for The grade of pesticide damage/plant: grade 0 / The grade of pesticide damage/plant: grade 1 / The grade of pesticide damage/plant: grade 2 / The grade of pesticide damage/plant: grade 3: 7 DAT, number of plants of 16 per genotype, grades
[4] = system: transgenic soybean plants; assay: oxyfluorfen tolerance of transgenic soybean plants (spray, grade of pesticide damage); details: for The grade of pesticide damage/plant: grade 0 / The grade of pesticide damage/plant: grade 1 / The grade of pesticide damage/plant: grade 2 / The grade of pesticide damage/plant: grade 3: 7 DAT, number of plants of 16 per genotype, grades; for tolerance to oxyfluorfen: soybean
[5] = system: Arabidopsis thaliana T1 plants; assay: oxyfluorfen tolerance of transgenic Arabidopsis thaliana T1 plants (spray, grade of pesticide damage); details: 7 DAT, number of plants of 24 per genotype, grades
Method in brief: as §1

[6] = system: Arabidopsis thaliana T1 plants; assay: saflufenacil tolerance of transgenic Arabidopsis thaliana T1 plants (spray, grade of pesticide damage); details: 7 DAT, number of plants of 24 per genotype, grades
Method in brief: as §1

[7] = system: transgenic soybean plants; assay: saflufenacil tolerance of transgenic soybean plants (spray, grade of pesticide damage); set-up: key to damage levels rated at grade: grade 0 means that the growth status of plants is essentially consistent with those sprayed with the blank solvent (water); grade 1 means that the average of the damage levels of plants is less than 10%; grade 2 means that the average of the damage levels of plants is greater than 100%; grade 3 means that the average of the damage levels of plants is 100%; details: for The grade of pesticide damage/plant: grade 0 / The grade of pesticide damage/plant: grade 1 / The grade of pesticide damage/plant: grade 2 / The grade of pesticide damage/plant: grade 3: 7 DAT, number of plants of 16 per genotype, grades

B1: PPO6A: nucleotide sequence encoding microbial protoporphyrinogen oxidase PPO6 (SEQ ID NO:6), Arabidopsis thaliana/soybean common codon usage bias (nucleic acid)
DNA: ATGTCTTCTCCTAATGGGAAGTATTTGATGCTTTACAGTACCACCGACGGTCACACAAAAACCATTATGGATACAATGGCTAAACATATAATGGAAGAAGCAAAAGTACAATGTGATGTTGTGGACATGAGAGATGGAGACAAATACGAGTTAGCTGCTTATGAGAAGGTGATGCTAGGAGCTTCTATTAGATATGGATTCTTCAGCCGCACTCTTCATACATATACCACTCATCATGTTGATGAACTTAACTCAATGCCTTCCGCTTTCTTTGGAGTCAATCTCACTGCTCGTAAAACTTCAAAGAACACTGCAATGACTAATGCATACACAAGAAAGTTTCTGGATCAATCCATGTGGGTTCCTCAATTATCTGGCGTTTTTGCTGGTGCTTTGTGGTATCCTAGGTACAATTTCTTTGACAGGGTTATGATTCAGTTCATCATGAAGGTAACTGGTGGTGAAACAAACACAACGAAAGAGATAGTTTACACTGATTGGGATGCTGTTCACAAATTTGCAACAGATTTTGTGCAGCTACCAGCCACGGCGATACCCCGGAGCAAGCCGGCGACGTCGGTCCCACCAGCTAGTGTGGCCAACTATGATAATGGGGCACGAGTAGCGCTTGTGGTTGTGGGAATCTCAGCAGCCATCATCTTTGGCCGTCGATTGATTCTCGCAAAGAGATTCTGA
modifications: The nucleotide sequence of PPO6A
The grade of pesticide damage/plant: grade 0 ([1]; flumioxazin 60 g ai/ha (1×)): 24 plant
The grade of pesticide damage/plant: grade 1 ([1]; flumioxazin 60 g ai/ha (1×)): 0 plant
The grade of pesticide damage/plant: grade 2 ([1]; flumioxazin 60 g ai/ha (1×)): 0 plant
The grade of pesticide damage/plant: grade 3 ([1]; flumioxazin 60 g ai/ha (1×)): 0 plant
The grade of pesticide damage/plant: grade 0 ([1]; flumioxazin 240 g ai/ha (4×)): 22 plant
The grade of pesticide damage/plant: grade 1 ([1]; flumioxazin 240 g ai/ha (4×)): 2 plant
The grade of pesticide damage/plant: grade 2 ([1]; flumioxazin 240 g ai/ha (4×)): 0 plant
The grade of pesticide damage/plant: grade 3 ([1]; flumioxazin 240 g ai/ha (4×)): 0 plant
The grade of pesticide: grade 0 ([2]; sulfentrazone 450 g ai/ha (1×)): 24
The grade of pesticide: grade 1 ([2]; sulfentrazone 450 g ai/ha (1×)): 0
The grade of pesticide: grade 2 ([2]; sulfentrazone 450 g ai/ha (1×)): 0
The grade of pesticide: grade 3 ([2]; sulfentrazone 450 g ai/ha (1×)): 0
The grade of pesticide: grade 0 ([2]; sulfentrazone 900 g ai/ha (2×)): 20
The grade of pesticide: grade 1 ([2]; sulfentrazone 900 g ai/ha (2×)): 4
The grade of pesticide: grade 2 ([2]; sulfentrazone 900 g ai/ha (2×)): 0
The grade of pesticide: grade 3 ([2]; sulfentrazone 900 g ai/ha (2×)): 0
The grade of pesticide damage/plant: grade 0 ([3]; flumioxazin 120 g ai/ha (2×)): 16 plant
The grade of pesticide damage/plant: grade 1 ([3]; flumioxazin 120 g ai/ha (2×)): 0 plant
The grade of pesticide damage/plant: grade 2 ([3]; flumioxazin 120 g ai/ha (2×)): 0 plant
The grade of pesticide damage/plant: grade 3 ([3]; flumioxazin 120 g ai/ha (2×)): 0 plant
The grade of pesticide damage/plant: grade 0 ([3]; flumioxazin 240 g ai/ha (4×)): 16 plant
The grade of pesticide damage/plant: grade 1 ([3]; flumioxazin 240 g ai/ha (4×)): 0 plant
The grade of pesticide damage/plant: grade 2 ([3]; flumioxazin 240 g ai/ha (4×)): 0 plant
The grade of pesticide damage/plant: grade 3 ([3]; flumioxazin 240 g ai/ha (4×)): 0 plant
tolerance to flumioxazin ([3]; soybean, flumioxazin at different concentrations (120 and 240 g ai/ha)): high-resistant tolerance
The grade of pesticide damage/plant: grade 0 ([4]; oxyfluorfen 360 g ai/ha (2×)): 16 plant
The grade of pesticide damage/plant: grade 1 ([4]; oxyfluorfen 360 g ai/ha (2×)): 0 plant
The grade of pesticide damage/plant: grade 2 ([4]; oxyfluorfen 360 g ai/ha (2×)): 0 plant
The grade of pesticide damage/plant: grade 3 ([4]; oxyfluorfen 360 g ai/ha (2×)): 0 plant
The grade of pesticide damage/plant: grade 0 ([4]; oxyfluorfen 720 g ai/ha (4×)): 16 plant
The grade of pesticide damage/plant: grade 1 ([4]; oxyfluorfen 720 g ai/ha (4×)): 0 plant
The grade of pesticide damage/plant: grade 2 ([4]; oxyfluorfen 720 g ai/ha (4×)): 0 plant
The grade of pesticide damage/plant: grade 3 ([4]; oxyfluorfen 720 g ai/ha (4×)): 0 plant
tolerance to oxyfluorfen ([4]; oxyfluorfen at four-fold field concentration (720 g ai/ha)): high-resistant tolerance
tolerance to oxyfluorfen ([4]; oxyfluorfen at two-fold field concentration (360 g ai/ha)): high-resistant tolerance
The grade of pesticide damage/plant: grade 0 ([5]; oxyfluorfen 180 g ai/ha (1×)): 24 plant
The grade of pesticide damage/plant: grade 1 ([5]; oxyfluorfen 180 g ai/ha (1×)): 0 plant
The grade of pesticide damage/plant: grade 2 ([5]; oxyfluorfen 180 g ai/ha (1×)): 0 plant
The grade of pesticide damage/plant: grade 3 ([5]; oxyfluorfen 180 g ai/ha (1×)): 0 plant
The grade of pesticide damage/plant: grade 0 ([5]; oxyfluorfen 720 g ai/ha (4×)): 20 plant
The grade of pesticide damage/plant: grade 1 ([5]; oxyfluorfen 720 g ai/ha (4×)): 4 plant
The grade of pesticide damage/plant: grade 2 ([5]; oxyfluorfen 720 g ai/ha (4×)): 0 plant
The grade of pesticide damage/plant: grade 3 ([5]; oxyfluorfen 720 g ai/ha (4×)): 0 plant
The grade of pesticide damage/plant: grade 0 ([6]; saflufenacil 25 g ai/ha (1×)): 24 plant
The grade of pesticide damage/plant: grade 1 ([6]; saflufenacil 25 g ai/ha (1×)): 0 plant
The grade of pesticide damage/plant: grade 2 ([6]; saflufenacil 25 g ai/ha (1×)): 0 plant
The grade of pesticide damage/plant: grade 3 ([6]; saflufenacil 25 g ai/ha (1×)): 0 plant
The grade of pesticide damage/plant: grade 0 ([6]; saflufenacil 100 g ai/ha (4×)): 2 plant
The grade of pesticide damage/plant: grade 1 ([6]; saflufenacil 100 g ai/ha (4×)): 22 plant
The grade of pesticide damage/plant: grade 2 ([6]; saflufenacil 100 g ai/ha (4×)): 0 plant
The grade of pesticide damage/plant: grade 3 ([6]; saflufenacil 100 g ai/ha (4×)): 0 plant
The grade of pesticide damage/plant: grade 0 ([7]; saflufenacil 50 g ai/ha (2×)): 16 plant
The grade of pesticide damage/plant: grade 1 ([7]; saflufenacil 50 g ai/ha (2×)): 0 plant
The grade of pesticide damage/plant: grade 2 ([7]; saflufenacil 50 g ai/ha (2×)): 0 plant
The grade of pesticide damage/plant: grade 3 ([7]; saflufenacil 50 g ai/ha (2×)): 0 plant
The grade of pesticide damage/plant: grade 0 ([7]; saflufenacil 100 g ai/ha (4×)): 16 plant
The grade of pesticide damage/plant: grade 1 ([7]; saflufenacil 100 g ai/ha (4×)): 0 plant
The grade of pesticide damage/plant: grade 2 ([7]; saflufenacil 100 g ai/ha (4×)): 0 plant
The grade of pesticide damage/plant: grade 3 ([7]; saflufenacil 100 g ai/ha (4×)): 0 plant
tolerance to saflufenacil ([7]; soybean, saflufenacil at four-fold field concentration (100 g ai/ha)): high-resistant tolerance
damage levels rated at grade ([7]; soybean, saflufenacil at two-fold field concentration (50 g ai/ha)): 0
tolerance to saflufenacil ([7]; soybean, saflufenacil, compared with the control vector and CK): different extents of tolerance
